Assay results as given in the RNAGym collection of RNA variant scans (doi:10.1073/pnas.2313332121).

B1: TPR t1 (parent)
chain: GACCAAUCUGCCCUCAGAGCUCGAGAACAUCUUCGGAUGCAGAGGAGGCAGGCUUCGGUGGCGCGAUAGCGCCAACGUCCUCAACCUCCAAUGCAUCCCACCACAUGAUGAUGCCUGAAGAGCCUUGGUUUUUUG

Variants of: B1
Assay: polymerase ribozyme fitness, log enrichment relative to wild type (log ratio); higher = more active; in vitro selection for triplet polymerase activity
Method in brief: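 Each subunit of a heterodimeric triplet polymerase ribozyme was mutagenized into a library by PCR, transcribed, and subjected to one round of in vitro selection, run in triplicate. Libraries were annealed with a biotinylated primer, the partner subunit and triplets, incubated frozen at −7 °C, and extended constructs were gel-excised, captured on streptavidin beads and recovered by RT-PCR. Input and output libraries were sequenced on Illumina, keeping genotypes with ≥10 input reads and ≥1 read per output. Fitness is log base 2 of genotype enrichment divided by wild-type enrichment, from inverse-variance-weighted replicate averages.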

Compared with C40A C73A U81C C104U, G39U A74G is lower in “polymerase ribozyme fitness (log ratio)” value: -0.977 for the first, -1.85 for the second.

First: G39A G47U
Second: U38G C80U
The “polymerase ribozyme fitness (log ratio)” value of the first is lower: -2.07 for the first, -1.64 for the second.

Going from C40A C73U to C40A A50U C88U U96C G120U, the “polymerase ribozyme fitness (log ratio)” value falls from -1.17 to -4.53.

Compared with G39C C56A, U38G U55G is higher in “polymerase ribozyme fitness (log ratio)” value: -0.765 for the first, 0.414 for the second.

First: G39A C73A G117A A119G
Second: G39C C114A
The “polymerase ribozyme fitness (log ratio)” value of the first is higher: 1.02 for the first, -1.94 for the second.

Going from G39C U78A C94A C123A C124A G128A to C40A A118U G120U, the “polymerase ribozyme fitness (log ratio)” value falls from -0.0279 to -1.37.

Going from G39U U55A G71A C94G C102A G113U to G39U G61U C73U U106A, the “polymerase ribozyme fitness (log ratio)” value rises from -5.82 to -1.81.

Going from G39C C53A U54G G120U to G39U G63A G93U, the “polymerase ribozyme fitness (log ratio)” value falls from 0.139 to -3.17.

Compared with G39U C85U, G39U C85G is lower in “polymerase ribozyme fitness (log ratio)” value: -0.997 for the first, -2.87 for the second.

Going from G39A A84C U106A to G39C G47C, the “polymerase ribozyme fitness (log ratio)” value falls from -0.784 to -3.08.

Compared with G39C G44U, C40A A46G U132A is higher in “polymerase ribozyme fitness (log ratio)” value: -2.29 for the first, -1.49 for the second.

First: G39A A50C C73A C79A C82G
Second: U38G C101A
The “polymerase ribozyme fitness (log ratio)” value of the first is higher: -0.859 for the first, -1.88 for the second.

First: G39U C79U
Second: U38G C49U U125G
The “polymerase ribozyme fitness (log ratio)” value of the first is higher: -0.704 for the first, -2.98 for the second.

Compared with G39C C70U C101A, G39C A43G C124U is higher in “polymerase ribozyme fitness (log ratio)” value: -2.67 for the first, -0.831 for the second.

Going from G39U C73U G77A to U38G G135U, the “polymerase ribozyme fitness (log ratio)” value falls from -1.39 to -2.04.

Going from U38G U78A to G39C U116C, the “polymerase ribozyme fitness (log ratio)” value falls from -0.0381 to -2.01.

Compared with G39A G69C, G39U C49A is lower in “polymerase ribozyme fitness (log ratio)” value: -0.611 for the first, -0.99 for the second.

Going from G39A G51U C79U C101U to G39A C56G C94G A111C C114U U130G, the “polymerase ribozyme fitness (log ratio)” value rises from -5.14 to -4.67.

Going from G39A G69U C99A to G39U G61U G110U, the “polymerase ribozyme fitness (log ratio)” value rises from -4.04 to -2.

Compared with U38G C102U, U38G G44A is higher in “polymerase ribozyme fitness (log ratio)” value: -3.84 for the first, -2.72 for the second.

Compared with G39U A90G C98U C102A, G39U U106C U129C is higher in “polymerase ribozyme fitness (log ratio)” value: -4.8 for the first, -1.88 for the second.

Compared with U38G C89U, G39A G42A A46G G58A is lower in “polymerase ribozyme fitness (log ratio)” value: -0.78 for the first, -2.47 for the second.

First: G39C G77C C115U G128A
Second: G39U U54A
The “polymerase ribozyme fitness (log ratio)” value of the first is lower: -4.5 for the first, -1.76 for the second.

First: G39C C72U G93U A121U
Second: G39U A90G C102A G117U A121C
The “polymerase ribozyme fitness (log ratio)” value of the first is higher: 0.127 for the first, -5.4 for the second.

Compared with U38G C53A U81C C101U C124G, C40A A43U C82U is lower in “polymerase ribozyme fitness (log ratio)” value: 1 for the first, -3.09 for the second.

Going from G39U C123G U126C to G39U C79U C88A G110A G117U, the “polymerase ribozyme fitness (log ratio)” value falls from -0.255 to -6.66.

First: C40A C73U G128U
Second: G39A C124A
The “polymerase ribozyme fitness (log ratio)” value of the first is lower: -3.11 for the first, 1.38 for the second.

First: G39A C124G
Second: G39A G110C
The “polymerase ribozyme fitness (log ratio)” value of the first is higher: 1.36 for the first, -4.65 for the second.

Compared with G39A C72G A105G, G39U A41G G45A A119G U132G G135U is higher in “polymerase ribozyme fitness (log ratio)” value: -2.86 for the first, -2.12 for the second.

Compared with G39U G42A G57U G117A C124G, G39U G63A A100U G120U is higher in “polymerase ribozyme fitness (log ratio)” value: -3.25 for the first, -2.94 for the second.

Going from C40A C82G to G39U G58A A121U, the “polymerase ribozyme fitness (log ratio)” value rises from -1.95 to 1.6.

Going from G39A G48A A100C G120A to U38G C62A U106A G113U, the “polymerase ribozyme fitness (log ratio)” value falls from -1.06 to -6.66.

First: G39C G48U C62U
Second: U38G G52A G63C
The “polymerase ribozyme fitness (log ratio)” value of the first is higher: -1.74 for the first, -2.23 for the second.

Compared with U38G C53U C124U, C40A C56G is lower in “polymerase ribozyme fitness (log ratio)” value: 0.103 for the first, -2.58 for the second.

Going from G39U A41U A43U G60U C82A C114A to G39U U109G, the “polymerase ribozyme fitness (log ratio)” value falls from -4.19 to -5.73.

Going from G39A G135U to C40A C72U U92A C115A, the “polymerase ribozyme fitness (log ratio)” value falls from -1.41 to -1.91.

Compared with U38G C97U, G39U U59A C98U A121G is higher in “polymerase ribozyme fitness (log ratio)” value: -4.33 for the first, 0.547 for the second.

First: G39U C64U A91C C123A
Second: C40A C72A
The “polymerase ribozyme fitness (log ratio)” value of the first is lower: -1.57 for the first, -0.912 for the second.

First: G39U G42C C94U U106A U112A
Second: G39A C56A U130A U131C
The “polymerase ribozyme fitness (log ratio)” value of the first is higher: -0.723 for the first, -1.5 for the second.

First: G39A C56U G107U A111U U129A
Second: G39A G61A C89A G120C
The “polymerase ribozyme fitness (log ratio)” value of the first is lower: -5.29 for the first, -1.19 for the second.

First: C40A C53A G57U
Second: G39C A43U A90G C114U U125A
The “polymerase ribozyme fitness (log ratio)” value of the first is higher: -0.732 for the first, -2.64 for the second.

Going from G39U C123A to G39A G71A C86A A100C, the “polymerase ribozyme fitness (log ratio)” value falls from -0.855 to -4.
